Consider 5 molecules from paper PMC12507517, “Teamwork of clustered low-affinity κB sites and accessory factors regulates transcriptional strength of NF-κB RelA dimers”.

For data set [1], the target named is T1, Tead3 (affinity-purified) (UniProt Q99594 1-435). In words: EMSA; EMSA: 10 mM Tris-HCl pH 7.5, 50 mM NaCl, 10% glycerol, 1% NP-40, 1 mM EDTA, 0.1 mg/mL salmon sperm DNA, room temp; BLI: 25 mM Tris-HCl pH 7.5, 150 mM NaCl, 0.02% Tween 20, 0.1 mg/mL salmon sperm DNA, 1 mM DTT. The note with it: protein: recombinant; label: 32P. On the technique in general: Mobility shift assays separate free from complexed probe on a gel.
T1 sequence (Q99594 whole entry): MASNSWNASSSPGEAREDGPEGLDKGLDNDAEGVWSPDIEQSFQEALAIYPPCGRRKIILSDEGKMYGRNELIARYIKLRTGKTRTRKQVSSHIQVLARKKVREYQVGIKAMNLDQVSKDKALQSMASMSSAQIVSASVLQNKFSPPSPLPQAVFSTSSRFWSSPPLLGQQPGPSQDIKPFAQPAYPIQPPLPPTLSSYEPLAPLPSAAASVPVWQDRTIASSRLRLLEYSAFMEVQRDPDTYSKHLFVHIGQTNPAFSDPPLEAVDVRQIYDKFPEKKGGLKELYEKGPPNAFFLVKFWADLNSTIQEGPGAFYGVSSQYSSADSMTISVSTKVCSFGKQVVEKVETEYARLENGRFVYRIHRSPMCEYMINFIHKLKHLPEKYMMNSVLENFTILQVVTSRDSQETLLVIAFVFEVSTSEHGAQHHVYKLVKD

The target of data set [2] is T2, Nfatc1 (affinity-purified) (UniProt O95644 1-698).
T2 sequence: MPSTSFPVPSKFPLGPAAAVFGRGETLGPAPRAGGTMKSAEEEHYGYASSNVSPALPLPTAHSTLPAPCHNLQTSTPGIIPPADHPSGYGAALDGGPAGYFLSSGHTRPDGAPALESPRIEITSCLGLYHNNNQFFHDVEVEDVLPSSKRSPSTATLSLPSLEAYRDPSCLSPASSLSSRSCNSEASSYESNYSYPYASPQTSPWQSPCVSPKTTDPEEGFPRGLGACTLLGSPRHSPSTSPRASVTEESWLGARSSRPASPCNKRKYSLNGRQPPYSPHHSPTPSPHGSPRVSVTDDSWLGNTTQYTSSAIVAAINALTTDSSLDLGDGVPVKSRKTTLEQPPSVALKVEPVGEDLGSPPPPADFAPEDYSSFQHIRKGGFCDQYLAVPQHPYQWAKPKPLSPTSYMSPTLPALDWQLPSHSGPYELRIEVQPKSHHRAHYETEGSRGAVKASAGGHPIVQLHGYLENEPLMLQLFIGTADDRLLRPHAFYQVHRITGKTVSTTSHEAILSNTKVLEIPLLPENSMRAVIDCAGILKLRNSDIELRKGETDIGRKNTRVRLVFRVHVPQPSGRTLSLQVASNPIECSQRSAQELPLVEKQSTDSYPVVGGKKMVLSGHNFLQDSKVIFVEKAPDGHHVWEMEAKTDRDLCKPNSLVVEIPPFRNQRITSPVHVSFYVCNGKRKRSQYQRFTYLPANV
The data set is described as above. The note with it: protein: recombinant; label: 32P.

In data set [3] the target is T3, RelA homodimer (UniProt Q04206 1-551). The description is as above. The note with it: protein: recombinant; tags: His; chain copies: 2; label: 32P.
T3 sequence (Q04206 whole entry): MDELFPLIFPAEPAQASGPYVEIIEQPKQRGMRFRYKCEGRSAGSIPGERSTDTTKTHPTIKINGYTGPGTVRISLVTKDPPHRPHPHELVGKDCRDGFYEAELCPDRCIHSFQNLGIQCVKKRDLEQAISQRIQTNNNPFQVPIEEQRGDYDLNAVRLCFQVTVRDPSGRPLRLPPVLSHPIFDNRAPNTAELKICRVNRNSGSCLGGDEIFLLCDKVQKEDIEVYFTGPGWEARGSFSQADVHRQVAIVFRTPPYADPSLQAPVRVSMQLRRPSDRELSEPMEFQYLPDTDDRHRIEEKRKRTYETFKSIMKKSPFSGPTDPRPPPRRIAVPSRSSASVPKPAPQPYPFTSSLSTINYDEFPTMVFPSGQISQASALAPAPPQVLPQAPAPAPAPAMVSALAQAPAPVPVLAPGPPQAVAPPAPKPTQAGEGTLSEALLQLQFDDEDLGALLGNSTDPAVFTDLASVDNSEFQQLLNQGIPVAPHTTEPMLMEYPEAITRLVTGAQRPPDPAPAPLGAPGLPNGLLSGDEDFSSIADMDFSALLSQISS
Data set [4] concerns the target T4, p50:RelA heterodimer, RelA chain;p50:RelA heterodimer, p50 chain (;, UniProt Q04206;P19838 1-551;1-435, |). The description is as above. The note with it: protein: recombinant;recombinant; tags: His;His; copies: 1;1; label: 32P.
Data set [5] concerns the target T3, RelA homodimer. Nature of the data set: EMSA; no discernible effect of mutation; EMSA: 10 mM Tris-HCl pH 7.5, 50 mM NaCl, 10% glycerol, 1% NP-40, 1 mM EDTA, 0.1 mg/mL salmon sperm DNA, room temp; BLI: 25 mM Tris-HCl pH 7.5, 150 mM NaCl, 0.02% Tween 20, 0.1 mg/mL salmon sperm DNA, 1 mM DTT. The note with it: protein: recombinant; tags: His; chain copies: 2; label: 32P.

In data set [6] the target is T4, p50:RelA heterodimer, RelA …. The description is as above. The note with it: protein: recombinant;recombinant; tags: His;His; copies: 1;1; label: 32P.
The target in data set [7] is T1, Tead3 (affinity-purified). Nature of the data set: EMSA; strong site only; EMSA: 10 mM Tris-HCl pH 7.5, 50 mM NaCl, 10% glycerol, 1% NP-40, 1 mM EDTA, 0.1 mg/mL salmon sperm DNA, room temp; BLI: 25 mM Tris-HCl pH 7.5, 150 mM NaCl, 0.02% Tween 20, 0.1 mg/mL salmon sperm DNA, 1 mM DTT. The note with it: protein: recombinant; label: 32P.
For another data set, the target named is T5, Nfat5 RHR mutant (UniProt O94916 264-544, R295S;Y296S).
T5 sequence: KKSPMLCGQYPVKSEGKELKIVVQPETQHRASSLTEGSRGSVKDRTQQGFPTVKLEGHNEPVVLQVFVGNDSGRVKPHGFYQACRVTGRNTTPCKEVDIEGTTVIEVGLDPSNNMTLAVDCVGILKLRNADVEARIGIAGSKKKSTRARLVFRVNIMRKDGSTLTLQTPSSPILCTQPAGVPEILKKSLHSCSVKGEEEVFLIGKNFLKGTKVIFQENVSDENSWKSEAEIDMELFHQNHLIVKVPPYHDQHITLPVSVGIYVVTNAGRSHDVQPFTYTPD
Nature of the data set: EMSA; no observable binding; EMSA: 10 mM Tris-HCl pH 7.5, 50 mM NaCl, 10% glycerol, 1% NP-40, 1 mM EDTA, 0.1 mg/mL salmon sperm DNA, room temp; BLI: 25 mM Tris-HCl pH 7.5, 150 mM NaCl, 0.02% Tween 20, 0.1 mg/mL salmon sperm DNA, 1 mM DTT. The note with it: protein: recombinant; chain copies: 2; label: 32P.

A further data set concerns the target T6, Nfat5 RHR WT (UniProt O94916 264-544).
T6 sequence: T5 sequence with S32R, S33Y
Described as above. The note with it: protein: recombinant; chain copies: 2; label: 32P.

Data set [8] has as its target T1, Tead3 (affinity-purified). In words: EMSA; weak site only; EMSA: 10 mM Tris-HCl pH 7.5, 50 mM NaCl, 10% glycerol, 1% NP-40, 1 mM EDTA, 0.1 mg/mL salmon sperm DNA, room temp; BLI: 25 mM Tris-HCl pH 7.5, 150 mM NaCl, 0.02% Tween 20, 0.1 mg/mL salmon sperm DNA, 1 mM DTT. The note with it: protein: recombinant; label: 32P.
Data set [9] has as its target T3, RelA homodimer. Nature of the data set: EMSA; binding retained; EMSA: 10 mM Tris-HCl pH 7.5, 50 mM NaCl, 10% glycerol, 1% NP-40, 1 mM EDTA, 0.1 mg/mL salmon sperm DNA, room temp; BLI: 25 mM Tris-HCl pH 7.5, 150 mM NaCl, 0.02% Tween 20, 0.1 mg/mL salmon sperm DNA, 1 mM DTT. The note with it: protein: recombinant; tags: His; chain copies: 2; label: 32P.
Data set [10] has as its target T4, p50:RelA heterodimer, RelA …. The description is as above. The note with it: protein: recombinant;recombinant; tags: His;His; copies: 1;1; label: 32P.

Where a chain is given by its changes, count along the chain named.

T4 sequence (Q04206 whole entry, chain 1 of 2): as the sequence (Q04206 whole entry) above
T4 sequence (P19838 1-435, chain 2 of 2): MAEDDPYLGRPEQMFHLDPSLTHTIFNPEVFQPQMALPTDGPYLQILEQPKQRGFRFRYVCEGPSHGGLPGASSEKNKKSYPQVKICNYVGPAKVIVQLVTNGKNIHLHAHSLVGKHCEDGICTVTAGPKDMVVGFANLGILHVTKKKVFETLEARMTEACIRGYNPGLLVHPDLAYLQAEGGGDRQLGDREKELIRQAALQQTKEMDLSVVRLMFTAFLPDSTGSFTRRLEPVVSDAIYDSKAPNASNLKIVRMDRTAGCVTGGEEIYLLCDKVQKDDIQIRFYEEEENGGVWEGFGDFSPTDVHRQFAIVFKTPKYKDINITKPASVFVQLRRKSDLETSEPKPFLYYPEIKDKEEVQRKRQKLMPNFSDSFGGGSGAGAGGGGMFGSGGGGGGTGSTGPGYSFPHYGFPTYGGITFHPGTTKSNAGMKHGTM

B1: 2DM Cxcl2 probe (both sites mutated) (dsDNA)
DNA 1: TCGACATGAGGGGACCCTGAGCTCAGCTAATTTGACTGGTCCCCGGGCTTTTGGAG
DNA 2: CTCCAAAAGCCCGGGGACCAGTCAAATTAGCTGAGCTCAGGGTCCCCTCATGTCGA
On to B1, for which the binding result (in data set [1]; in data set [2]; with RelA homodimer [3]; in data set [4]) was “no binding” each time.

B2: 2ΔW Cxcl2 probe (weak site mutated) (dsDNA)
DNA 1: B1 DNA 1 with C27G, T28G, G34C, A35C
DNA 2: B1 DNA 2 with T22G, C23G, A29C, G30C
For the molecule B2, the binding result (with RelA homodimer [5]; in [6]; in data set [7]; in data set [2]) was “binds” in each case.

B3: Nfat EMSA probe (dsDNA)
DNA 1: B1 DNA 1 with C27G, T28G, G34C, A35C, G53C, G54C
DNA 2: B1 DNA 2 with C3G, C4G, T22G, C23G, A29C, G30C
With B3, the binding result in the data set with Nfat5 RHR mutant and in the data set with Nfat5 RHR WT was “no binding” throughout.

B4: 2WT Cxcl2 probe (dsDNA)
DNA 1: B1 DNA 1 with C27G, T28G, G34C, A35C, G53C, G54C
DNA 2: B1 DNA 2 with C3G, C4G, T22G, C23G, A29C, G30C
For the molecule B4, the binding result in [1] and in data set [2] was “binds” in each case.

B5: 2ΔS Cxcl2 probe (strong site mutated) (dsDNA)
DNA 1: B1 DNA 1 with G53C, G54C
DNA 2: B1 DNA 2 with C3G, C4G
With B5, the binding result in [8] was “no binding”; with RelA homodimer [9] it was “binds”; in data set [10], “binds”; in data set [2], “binds”.
